The record followed here is publication PMC3779284.

Broadly, the Kd is the concentration at which binding is half-saturated. Low readings indicate tighter binding, high ones weaker binding.

Assay [1] concerns the target Calmodulin fluorescently labelled with Alexa Fluor 488 (UniProt P0DP23). Put plainly: AUC.
The target is the same in assay [2]. In words: AUC. The source holds these as a separate data set.

Where two headings read alike, the source gives them in different places.

In assay [1], nNOSred R753A (domain or fragment) had a dissociation constant Kd of 468 nM and a percent free calmodulin at 1:0.5 CaM:nNOSred of 64.6%.

In assay [1], “nNOSred wt (rat neuronal nitric oxide synthase reductase domain, wild type) (domain or fragment)” yielded a Kd of 167 nM and a percent free calmodulin at 1:0.5 CaM:nNOSred of 30.9%. In assay [2], this substance registered a percent free calmodulin at 1:0.5 CaM:nNOSred of 40%.
